In patent publication US10428140B2, “Anti-EphA4 antibody” (EISAI R&D MANAGEMENT CO., LTD., priority 2015, dated 2019):

How the values were obtained:
Test in all cases: Selectivity ELISA of humanized antibodies for human Eph receptor
Assay type in all cases: binding
Conditions in all cases: coated protein 1 nM
human EphA1 = molecular target: T1, human EphA1 (Homo sapiens, UniProt P21709)
T1 construct: a protein of the extracellular region of each human Eph receptor fused with the SEAP protein and the His tag; made in house; host or cells: Expi293F cells (culture supernatant)
T1 sequence (P21709 26-547 limits assumed): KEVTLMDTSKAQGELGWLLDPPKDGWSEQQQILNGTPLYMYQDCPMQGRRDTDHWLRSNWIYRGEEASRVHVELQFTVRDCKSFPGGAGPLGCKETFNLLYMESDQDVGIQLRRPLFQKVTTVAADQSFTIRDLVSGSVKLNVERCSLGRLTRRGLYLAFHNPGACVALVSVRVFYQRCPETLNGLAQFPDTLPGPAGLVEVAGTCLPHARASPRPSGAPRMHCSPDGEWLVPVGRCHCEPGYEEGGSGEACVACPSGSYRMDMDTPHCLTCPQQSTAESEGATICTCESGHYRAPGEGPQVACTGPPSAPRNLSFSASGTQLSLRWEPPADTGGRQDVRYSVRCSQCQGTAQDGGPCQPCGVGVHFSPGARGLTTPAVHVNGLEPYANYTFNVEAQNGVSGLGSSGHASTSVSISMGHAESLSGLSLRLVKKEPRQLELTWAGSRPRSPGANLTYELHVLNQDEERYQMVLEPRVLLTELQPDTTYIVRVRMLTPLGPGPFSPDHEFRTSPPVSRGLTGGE
Outline: (§1)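 Human Eph ECD-SEAP-His fusions, harvested after 5 days of Expi293F expression, are captured on anti-His-coated wells (1 nM final). Bound humanized antibody is detected with HRP anti-IgG and TMB at 450 nm.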

human EphB1 = molecular target: T2, human EphB1 (Homo sapiens, UniProt P54762)
T2 construct: a protein of the extracellular region of each human Eph receptor fused with the SEAP protein and the His tag; made in house; host or cells: Expi293F cells (culture supernatant)
T2 sequence (P54762 18-540 limits assumed): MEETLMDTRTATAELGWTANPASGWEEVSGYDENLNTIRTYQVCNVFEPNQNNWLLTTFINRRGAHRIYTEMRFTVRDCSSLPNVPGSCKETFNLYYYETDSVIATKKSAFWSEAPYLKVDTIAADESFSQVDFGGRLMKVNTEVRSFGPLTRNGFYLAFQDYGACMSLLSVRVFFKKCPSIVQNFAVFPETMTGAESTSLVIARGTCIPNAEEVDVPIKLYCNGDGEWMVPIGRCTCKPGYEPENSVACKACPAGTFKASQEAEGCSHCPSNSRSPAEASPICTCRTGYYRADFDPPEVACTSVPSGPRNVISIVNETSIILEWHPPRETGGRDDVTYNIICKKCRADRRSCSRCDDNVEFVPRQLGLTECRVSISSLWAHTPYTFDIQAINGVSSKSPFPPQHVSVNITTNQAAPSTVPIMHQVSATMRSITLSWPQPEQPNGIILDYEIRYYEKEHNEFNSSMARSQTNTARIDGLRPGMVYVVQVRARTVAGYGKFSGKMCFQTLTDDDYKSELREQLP
Outline: as §1

human EphA6 = molecular target: T3, human EphA6 (Homo sapiens, UniProt Q9UF33)
T3 construct: a protein of the extracellular region of each human Eph receptor fused with the SEAP protein and the His tag; made in house; host or cells: Expi293F cells (culture supernatant)
T3 sequence (Q9UF33 23-550 limits assumed): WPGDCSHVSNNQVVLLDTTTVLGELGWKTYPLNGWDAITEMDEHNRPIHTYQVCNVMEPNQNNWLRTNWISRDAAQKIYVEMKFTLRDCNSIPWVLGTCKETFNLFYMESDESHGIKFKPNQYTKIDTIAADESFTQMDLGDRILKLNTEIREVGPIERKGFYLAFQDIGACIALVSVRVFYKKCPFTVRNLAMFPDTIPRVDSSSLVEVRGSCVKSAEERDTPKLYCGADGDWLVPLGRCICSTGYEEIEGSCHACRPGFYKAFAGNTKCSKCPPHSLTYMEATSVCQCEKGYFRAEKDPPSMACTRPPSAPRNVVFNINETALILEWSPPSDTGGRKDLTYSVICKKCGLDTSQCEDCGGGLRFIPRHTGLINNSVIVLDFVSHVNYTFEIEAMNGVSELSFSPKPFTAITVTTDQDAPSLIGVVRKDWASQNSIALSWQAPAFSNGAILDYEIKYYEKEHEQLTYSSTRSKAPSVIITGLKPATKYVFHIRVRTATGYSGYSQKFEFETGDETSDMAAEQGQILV
Outline: as §1

B1: 151 (antibody, V domains shown)
VH: QIQLVQSGSELKKPGASVKVSCKASGYTFTDYSMHWVRQAPGQGLKWMGWINTETGEPTYAQGFTGRFVFSLDTSVSTAYLQISSLKAEDTAVYYCARIPLYYYGSRYWYFDVWGQGTTVTVSS
VL: DIQMTQSPSSLSASVGDRVTITCRASENIYRNLAWYQQKPGKAPKLLLYAATNLADGVPSRFSGSGSGTDYTLTISSLQSEDFATYYCQHFWGTPWTFGQGTKVEIK
modifications: synthetic humanized antibody heavy chain variable region sequence; synthetic humanized antibody light chain variable region sequence
- hEphA1-SEAP-: absorbance at 450 nm, percentage with respect to hEphA4-SEAP-His as 100% (human EphA1): 7.1%
- hEphB1-SEAP-: absorbance at 450 nm, percentage with respect to hEphA4-SEAP-His as 100% (human EphB1): 6.8%
- hEphA6-SEAP-: absorbance at 450 nm, percentage with respect to hEphA4-SEAP-His as 100% (human EphA6): 9.9%

B2: 155 (antibody, V domains shown)
VH: QIQLVQSGSELKKPGASVKVSCKASGYTFTDYSMHWVRQAPGQGLKWMGWINTETGEPTYADDFKGRFVFSLDTSVSTAYLQISSLKAEDTAVYYCARIPLYYYGSRYWYFDVWGQGTTVTVSS
VL: DIQMTQSPSSLSASVGDRVTITCRASENIYRNLAWYQQKPGKAPKLLLYAATNLADGVPSRFSGSGSGTDYTLTISSLQSEDFATYYCQHFWGTPWTFGQGTKVEIK
modifications: synthetic humanized antibody heavy chain variable region sequence; synthetic humanized antibody light chain variable region sequence
- hEphA1-SEAP-: absorbance at 450 nm, percentage with respect to hEphA4-SEAP-His as 100% (human EphA1): 5.5%
- hEphB1-SEAP-: absorbance at 450 nm, percentage with respect to hEphA4-SEAP-His as 100% (human EphB1): 5.4%
- hEphA6-SEAP-: absorbance at 450 nm, percentage with respect to hEphA4-SEAP-His as 100% (human EphA6): 7.2%

B3: 159 (antibody, V domains shown)
VH: QVQLVQSGSELKKPGASVKVSCKASGYTFTDYSMHWVRQAPGQGLKWMGWINTETGEPTYADDFKGRFVFSLDTSVSTAYLQISSLKAEDTAVYYCARIPLYYYGSRYWYFDVWGQGTTVTVSS
VL: DIQMTQSPSSLSASVGDRVTITCRASENIYRNLAWYQQKPGKAPQLLLYAATNLADGVPSRFSGSGSGTDYTLTISSLQPEDFATYYCQHFWGTPWTFGQGTKVEIK
modifications: synthetic humanized antibody heavy chain variable region sequence; synthetic humanized antibody light chain variable region sequence
- hEphA1-SEAP-: absorbance at 450 nm, percentage with respect to hEphA4-SEAP-His as 100% (human EphA1): 5.4%
- hEphB1-SEAP-: absorbance at 450 nm, percentage with respect to hEphA4-SEAP-His as 100% (human EphB1): 5.3%
- hEphA6-SEAP-: absorbance at 450 nm, percentage with respect to hEphA4-SEAP-His as 100% (human EphA6): 7.6%

B4: 158 (antibody, V domains shown)
VH: QVQLVQSGSELKKPGASVKVSCKASGYTFTDYSMHWVRQAPGQGLKWMGWINTETGEPTYAQGFTGRFVFSLDTSVSTAYLQISSLKAEDTAVYYCARIPLYYYGSRYWYFDVWGQGTTVTVSS
VL: DIQMTQSPSSLSASVGDRVTITCRASENIYRNLAWYQQKPGKAPQLLLYAATNLADGVPSRFSGSGSGTDYTLTISSLQPEDFATYYCQHFWGTPWTFGQGTKVEIK
modifications: synthetic humanized antibody heavy chain variable region sequence; synthetic humanized antibody light chain variable region sequence
- hEphA1-SEAP-: absorbance at 450 nm, percentage with respect to hEphA4-SEAP-His as 100% (human EphA1): 6.5%
- hEphB1-SEAP-: absorbance at 450 nm, percentage with respect to hEphA4-SEAP-His as 100% (human EphB1): 6.2%
- hEphA6-SEAP-: absorbance at 450 nm, percentage with respect to hEphA4-SEAP-His as 100% (human EphA6): 10.0%

B5: 157 (antibody, V domains shown)
VH: QVQLVQSGSELKKPGASVKVSCKASGYTFTDYSMHWVRQAPGQGLEWMGWINTETGEPTYAQGFTGRFVFSLDTSVSTAYLQISSLKAEDTAVYYCARIPLYYYGSRYWYFDVWGQGTTVTVSS
VL: DIQMTQSPSSLSASVGDRVTITCRASENIYRNLAWYQQKPGKAPQLLLYAATNLADGVPSRFSGSGSGTDYTLTISSLQPEDFATYYCQHFWGTPWTFGQGTKVEIK
modifications: synthetic humanized antibody heavy chain variable region sequence; synthetic humanized antibody light chain variable region sequence
- hEphA1-SEAP-: absorbance at 450 nm, percentage with respect to hEphA4-SEAP-His as 100% (human EphA1): 6.2%
- hEphB1-SEAP-: absorbance at 450 nm, percentage with respect to hEphA4-SEAP-His as 100% (human EphB1): 6.1%
- hEphA6-SEAP-: absorbance at 450 nm, percentage with respect to hEphA4-SEAP-His as 100% (human EphA6): 9.0%

B6: 160 (antibody, V domains shown)
VH: QIQLVQSGSELKKPGASVKVSCKASGYTFTDYSMHWVRQAPGQGLKWMGWINTETGEPTYADDFKGRFVFSLDTSVSTAYLQISSLKAEDTAVYYCARIPLYYYGSRYWYFDVWGQGTTVTVSS
VL: DIQMTQSPSSLSASVGDRVTITCRASENIYRNLAWYQQKPGKAPQLLLYAATNLADGVPSRFSGSGSGTDYTLTISSLQPEDFATYYCQHFWGTPWTFGQGTKVEIK
modifications: synthetic humanized antibody heavy chain variable region sequence; synthetic humanized antibody light chain variable region sequence
- hEphA1-SEAP-: absorbance at 450 nm, percentage with respect to hEphA4-SEAP-His as 100% (human EphA1): 6.5%
- hEphB1-SEAP-: absorbance at 450 nm, percentage with respect to hEphA4-SEAP-His as 100% (human EphB1): 6.1%
- hEphA6-SEAP-: absorbance at 450 nm, percentage with respect to hEphA4-SEAP-His as 100% (human EphA6): 8.7%

B7: 145 (antibody, V domains shown)
VH: QVQLVQSGSELKKPGASVKVSCKASGYTFTDYSMHWVRQAPGQGLKWMGWINTETGEPTYADDFKGRFVFSLDTSVSTAYLQISSLKAEDTAVYYCARIPLYYYGSRYWYFDVWGQGTTVTVSS
VL: DIQMTQSPSSLSASVGDRVTITCRASENIYRNLAWYQQKPGKAPKLLLYAATNLADGVPSRFSGSGSGTDYTLTISSLQSEDFATYYCQHFWGTPWTFGQGTKVEIK
modifications: synthetic humanized antibody heavy chain variable region sequence; synthetic humanized antibody light chain variable region sequence
- hEphA1-SEAP-: absorbance at 450 nm, percentage with respect to hEphA4-SEAP-His as 100% (human EphA1): 6.7%
- hEphB1-SEAP-: absorbance at 450 nm, percentage with respect to hEphA4-SEAP-His as 100% (human EphB1): 6.5%
- hEphA6-SEAP-: absorbance at 450 nm, percentage with respect to hEphA4-SEAP-His as 100% (human EphA6): 8.6%

B8: 154 (antibody, V domains shown)
VH: QVQLVQSGSELKKPGASVKVSCKASGYTFTDYSMHWVRQAPGQGLEWMGWINTETGEPTYADDFKGRFVFSLDTSVSTAYLQISSLKAEDTAVYYCARIPLYYYGSRYWYFDVWGQGTTVTVSS
VL: DIQMTQSPSSLSASVGDRVTITCRASENIYRNLAWYQQKPGKAPKLLLYAATNLADGVPSRFSGSGSGTDYTLTISSLQSEDFATYYCQHFWGTPWTFGQGTKVEIK
modifications: synthetic humanized antibody heavy chain variable region sequence; synthetic humanized antibody light chain variable region sequence
- hEphA1-SEAP-: absorbance at 450 nm, percentage with respect to hEphA4-SEAP-His as 100% (human EphA1): 6.4%
- hEphB1-SEAP-: absorbance at 450 nm, percentage with respect to hEphA4-SEAP-His as 100% (human EphB1): 6.3%
- hEphA6-SEAP-: absorbance at 450 nm, percentage with respect to hEphA4-SEAP-His as 100% (human EphA6): 8.4%

B9: 144 (antibody, V domains shown)
VH: QVQLVQSGSELKKPGASVKVSCKASGYTFTDYSMHWVRQAPGQGLEWMGWINTETGEPTYADDFKGRFVFSLDTSVSTAYLQISSLKAEDTAVYYCARIPLYYYGSRYWYFDVWGQGTTVTVSS
VL: DIQMTQSPSSLSASVGDRVTITCRASENIYRNLAWYQQKPGKAPQLLLYAATNLADGVPSRFSGSGSGTDYTLTISSLQPEDFATYYCQHFWGTPWTFGQGTKVEIK
modifications: synthetic humanized antibody heavy chain variable region sequence; synthetic humanized antibody light chain variable region sequence
- hEphA1-SEAP-: absorbance at 450 nm, percentage with respect to hEphA4-SEAP-His as 100% (human EphA1): 5.6%
- hEphB1-SEAP-: absorbance at 450 nm, percentage with respect to hEphA4-SEAP-His as 100% (human EphB1): 5.7%
- hEphA6-SEAP-: absorbance at 450 nm, percentage with respect to hEphA4-SEAP-His as 100% (human EphA6): 8.1%
